Measured values from PMC5513931.

Molecular target: T1, protease-activated receptor 2 (rat (endogenous in isolated Sprague Dawley rat arteries)) (UniProt Q63645)
T1 sequence: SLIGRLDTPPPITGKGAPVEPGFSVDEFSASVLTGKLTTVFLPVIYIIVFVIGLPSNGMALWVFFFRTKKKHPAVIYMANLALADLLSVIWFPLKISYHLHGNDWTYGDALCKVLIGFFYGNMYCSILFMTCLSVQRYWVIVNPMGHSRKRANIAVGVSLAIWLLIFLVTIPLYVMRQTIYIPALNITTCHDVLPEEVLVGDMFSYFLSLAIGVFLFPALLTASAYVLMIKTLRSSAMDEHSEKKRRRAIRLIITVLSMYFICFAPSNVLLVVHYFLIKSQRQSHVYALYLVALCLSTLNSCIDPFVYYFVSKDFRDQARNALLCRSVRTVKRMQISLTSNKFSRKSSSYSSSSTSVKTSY

B1: PAR-2 peptide agonist SLIGRL (peptide)
peptide: SLIGRL
EC50 of vasodilatation to SLIGRL (10 nM-10 uM), wire myography, MRA pre-constricted with 1 uM phenylephrine, control: 7.02 µM
EC50 of vasodilatation to SLIGRL (100 nM-100 uM), wire myography, basilar artery pre-constricted with 1 uM 5-HT, control: 9.65 µM
EC50 of vasodilatation to SLIGRL, wire myography, MRA from heparin-treated rats with 0.1 mM L-NNA, control: 86.4 µM
EC50 of vasodilatation to SLIGRL, wire myography, MRA from heparin-treated rats with 0.1 mM L-NNA, pre-incubated with 10 uM apixaban: 6.45 µM
EC50 of vasodilatation to SLIGRL, wire myography, MRA from heparin-treated rats, control: 1.04 µM
EC50 of vasodilatation to SLIGRL, wire myography, MRA from heparin-treated rats, pre-incubated with 10 uM apixaban: 0.71 µM
EC50 of vasodilatation to SLIGRL, wire myography, MRA pre-constricted with 1 uM phenylephrine, pre-incubated with 10 uM apixaban: 1.83 µM
EC50 of vasodilatation to SLIGRL, wire myography, MRA with 0.1 mM L-NNA, control: 3.03 µM
EC50 of vasodilatation to SLIGRL, wire myography, MRA with 0.1 mM L-NNA, pre-incubated with 10 uM apixaban: 2.27 µM
EC50 of vasodilatation to SLIGRL, wire myography, basilar artery pre-constricted with 1 uM 5-HT, pre-incubated with 10 uM apixaban: 4.41 µM
EC50 of vasodilatation to SLIGRL, wire myography, basilar artery with 0.1 mM L-NNA, control: 34.1 µM
EC50 of vasodilatation to SLIGRL, wire myography, basilar artery with 0.1 mM L-NNA, pre-incubated with 10 uM apixaban: 20.3 µM
